pKd: −log10 of the molar value.
Target: 420-kD polypeptide (human alpha 2-macroglobulin receptor) (human (endogenous in placenta)) (UniProt Q07954)
Experiment: ELISA

Sequence of UniProt Q07954 (Q07954 20-4544): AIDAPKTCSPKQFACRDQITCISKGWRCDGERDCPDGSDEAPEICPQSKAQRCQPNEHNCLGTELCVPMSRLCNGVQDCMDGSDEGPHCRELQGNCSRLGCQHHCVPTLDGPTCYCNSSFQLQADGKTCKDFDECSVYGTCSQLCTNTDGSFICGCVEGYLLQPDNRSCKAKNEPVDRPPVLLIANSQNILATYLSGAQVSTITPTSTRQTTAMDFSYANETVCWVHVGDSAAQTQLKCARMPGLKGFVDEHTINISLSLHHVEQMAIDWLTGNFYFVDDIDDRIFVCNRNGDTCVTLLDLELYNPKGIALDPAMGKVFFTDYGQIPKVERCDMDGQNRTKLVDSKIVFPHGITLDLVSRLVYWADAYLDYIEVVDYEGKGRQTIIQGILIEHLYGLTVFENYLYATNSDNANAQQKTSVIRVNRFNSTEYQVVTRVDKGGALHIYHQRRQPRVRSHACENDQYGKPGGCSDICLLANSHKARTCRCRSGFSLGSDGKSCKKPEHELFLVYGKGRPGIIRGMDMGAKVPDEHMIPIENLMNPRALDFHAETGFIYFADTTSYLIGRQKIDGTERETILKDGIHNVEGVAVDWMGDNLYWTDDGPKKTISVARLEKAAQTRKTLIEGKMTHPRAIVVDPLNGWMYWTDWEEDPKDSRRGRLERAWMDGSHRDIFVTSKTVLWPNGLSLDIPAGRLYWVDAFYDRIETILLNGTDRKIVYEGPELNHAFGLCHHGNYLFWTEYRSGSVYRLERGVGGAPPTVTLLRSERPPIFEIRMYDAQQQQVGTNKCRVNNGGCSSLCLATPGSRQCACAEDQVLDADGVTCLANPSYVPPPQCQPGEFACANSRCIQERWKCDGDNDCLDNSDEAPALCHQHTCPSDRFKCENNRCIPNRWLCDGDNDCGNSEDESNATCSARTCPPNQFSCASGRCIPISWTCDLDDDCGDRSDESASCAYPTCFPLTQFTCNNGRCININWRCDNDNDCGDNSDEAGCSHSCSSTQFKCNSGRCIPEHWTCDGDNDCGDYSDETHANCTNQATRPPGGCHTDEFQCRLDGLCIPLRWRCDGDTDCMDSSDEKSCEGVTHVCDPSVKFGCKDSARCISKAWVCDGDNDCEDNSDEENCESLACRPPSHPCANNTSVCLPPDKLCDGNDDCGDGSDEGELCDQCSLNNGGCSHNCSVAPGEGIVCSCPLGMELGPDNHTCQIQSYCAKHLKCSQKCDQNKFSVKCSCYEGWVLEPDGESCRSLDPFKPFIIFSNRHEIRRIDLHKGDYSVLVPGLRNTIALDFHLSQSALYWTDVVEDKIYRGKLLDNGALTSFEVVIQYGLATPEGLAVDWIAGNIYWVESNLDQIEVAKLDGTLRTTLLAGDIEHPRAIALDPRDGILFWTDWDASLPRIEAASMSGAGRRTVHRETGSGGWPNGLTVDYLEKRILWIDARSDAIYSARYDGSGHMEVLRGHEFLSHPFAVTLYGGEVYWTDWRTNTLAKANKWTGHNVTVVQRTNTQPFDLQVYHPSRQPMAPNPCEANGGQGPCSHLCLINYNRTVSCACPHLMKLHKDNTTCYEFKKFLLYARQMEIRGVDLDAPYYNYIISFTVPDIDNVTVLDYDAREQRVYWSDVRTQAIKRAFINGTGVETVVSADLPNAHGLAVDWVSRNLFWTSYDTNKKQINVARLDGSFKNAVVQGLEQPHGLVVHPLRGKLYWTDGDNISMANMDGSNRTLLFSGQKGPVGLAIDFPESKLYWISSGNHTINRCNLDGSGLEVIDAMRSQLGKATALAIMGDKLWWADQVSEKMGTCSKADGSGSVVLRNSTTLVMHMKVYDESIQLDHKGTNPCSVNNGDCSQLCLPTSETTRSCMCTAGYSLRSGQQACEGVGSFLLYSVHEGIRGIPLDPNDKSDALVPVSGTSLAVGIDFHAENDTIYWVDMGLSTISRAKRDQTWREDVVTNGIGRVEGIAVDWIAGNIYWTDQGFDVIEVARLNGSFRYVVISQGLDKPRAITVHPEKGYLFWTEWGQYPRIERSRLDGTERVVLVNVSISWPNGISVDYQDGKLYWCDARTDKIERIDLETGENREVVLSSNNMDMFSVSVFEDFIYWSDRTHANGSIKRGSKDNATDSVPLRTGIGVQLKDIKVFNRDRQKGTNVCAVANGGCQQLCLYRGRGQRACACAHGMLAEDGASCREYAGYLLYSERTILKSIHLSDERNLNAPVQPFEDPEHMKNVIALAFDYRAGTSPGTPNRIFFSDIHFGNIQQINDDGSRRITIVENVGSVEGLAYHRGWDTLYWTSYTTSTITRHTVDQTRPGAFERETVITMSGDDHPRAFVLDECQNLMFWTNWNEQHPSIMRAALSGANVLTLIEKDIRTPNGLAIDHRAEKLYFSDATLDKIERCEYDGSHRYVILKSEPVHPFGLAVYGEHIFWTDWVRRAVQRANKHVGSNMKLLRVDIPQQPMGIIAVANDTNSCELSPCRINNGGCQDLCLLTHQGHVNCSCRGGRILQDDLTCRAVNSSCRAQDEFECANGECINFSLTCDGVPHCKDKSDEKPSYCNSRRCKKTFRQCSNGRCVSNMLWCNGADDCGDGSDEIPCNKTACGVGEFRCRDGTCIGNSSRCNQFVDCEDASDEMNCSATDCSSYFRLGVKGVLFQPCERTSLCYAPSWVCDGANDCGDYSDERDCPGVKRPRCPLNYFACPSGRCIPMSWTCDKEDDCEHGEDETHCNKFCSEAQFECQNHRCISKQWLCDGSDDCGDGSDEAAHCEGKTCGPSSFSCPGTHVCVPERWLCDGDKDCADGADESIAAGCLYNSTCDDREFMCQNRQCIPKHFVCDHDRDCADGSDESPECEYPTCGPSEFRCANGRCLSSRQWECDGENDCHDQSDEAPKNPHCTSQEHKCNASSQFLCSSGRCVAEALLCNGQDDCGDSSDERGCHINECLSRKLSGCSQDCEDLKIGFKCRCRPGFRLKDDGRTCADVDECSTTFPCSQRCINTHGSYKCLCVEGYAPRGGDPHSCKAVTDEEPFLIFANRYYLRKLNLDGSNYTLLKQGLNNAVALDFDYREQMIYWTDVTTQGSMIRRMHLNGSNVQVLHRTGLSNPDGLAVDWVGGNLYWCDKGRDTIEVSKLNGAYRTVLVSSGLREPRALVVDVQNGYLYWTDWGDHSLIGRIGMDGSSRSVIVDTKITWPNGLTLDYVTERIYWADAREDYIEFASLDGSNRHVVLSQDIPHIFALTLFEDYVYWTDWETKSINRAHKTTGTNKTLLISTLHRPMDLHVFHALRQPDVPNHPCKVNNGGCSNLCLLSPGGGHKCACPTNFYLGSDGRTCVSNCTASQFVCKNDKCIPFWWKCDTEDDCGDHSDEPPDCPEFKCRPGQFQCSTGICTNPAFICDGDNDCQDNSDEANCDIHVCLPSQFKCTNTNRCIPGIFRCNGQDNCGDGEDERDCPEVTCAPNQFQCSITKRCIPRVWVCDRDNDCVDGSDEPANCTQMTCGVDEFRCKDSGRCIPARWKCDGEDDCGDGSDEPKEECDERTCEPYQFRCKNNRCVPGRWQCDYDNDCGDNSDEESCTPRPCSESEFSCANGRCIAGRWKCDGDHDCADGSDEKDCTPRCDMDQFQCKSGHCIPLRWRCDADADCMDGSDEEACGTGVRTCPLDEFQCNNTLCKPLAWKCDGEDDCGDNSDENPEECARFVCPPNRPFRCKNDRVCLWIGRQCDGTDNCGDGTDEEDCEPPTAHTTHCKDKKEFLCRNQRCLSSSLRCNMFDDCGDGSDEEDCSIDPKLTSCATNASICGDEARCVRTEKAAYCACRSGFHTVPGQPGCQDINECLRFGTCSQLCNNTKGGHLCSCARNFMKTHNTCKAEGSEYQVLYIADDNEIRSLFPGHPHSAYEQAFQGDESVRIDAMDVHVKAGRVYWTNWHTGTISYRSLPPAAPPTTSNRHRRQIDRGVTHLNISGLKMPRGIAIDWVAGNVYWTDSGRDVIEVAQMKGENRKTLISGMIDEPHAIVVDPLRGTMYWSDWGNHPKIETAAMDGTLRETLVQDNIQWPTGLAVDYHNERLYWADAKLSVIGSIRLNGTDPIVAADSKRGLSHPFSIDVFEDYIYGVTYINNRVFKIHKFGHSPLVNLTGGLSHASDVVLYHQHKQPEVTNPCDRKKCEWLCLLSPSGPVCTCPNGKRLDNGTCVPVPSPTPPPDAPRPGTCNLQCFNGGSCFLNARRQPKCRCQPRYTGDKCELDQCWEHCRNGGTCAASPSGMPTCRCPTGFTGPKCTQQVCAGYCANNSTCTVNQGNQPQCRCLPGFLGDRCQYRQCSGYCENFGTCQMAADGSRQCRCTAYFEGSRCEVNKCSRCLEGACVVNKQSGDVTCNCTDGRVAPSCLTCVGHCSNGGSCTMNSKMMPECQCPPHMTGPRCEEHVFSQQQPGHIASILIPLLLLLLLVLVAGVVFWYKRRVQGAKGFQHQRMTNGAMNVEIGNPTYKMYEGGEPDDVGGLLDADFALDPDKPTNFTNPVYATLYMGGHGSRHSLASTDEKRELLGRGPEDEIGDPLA

pKd: 7.15
Substance: alpha 2-macroglobulin-trypsin complex (from UniProt P01023 24-1474)

Reference: article PMC2116111
